Experimental data reported in patent US20210253725A1 (BIONTECH, published 2021).
Residue numbers refer to the chain shown, from its start. Names may count otherwise. One block for each binder: values may come before it.

How the values were obtained:
[1] = target: T1, CD27 expressed on the cell surface (HT1080_CD27 cells) (human, UniProt P26842 20-260); assay: cell-based or functional assay
T1 sequence (looked up): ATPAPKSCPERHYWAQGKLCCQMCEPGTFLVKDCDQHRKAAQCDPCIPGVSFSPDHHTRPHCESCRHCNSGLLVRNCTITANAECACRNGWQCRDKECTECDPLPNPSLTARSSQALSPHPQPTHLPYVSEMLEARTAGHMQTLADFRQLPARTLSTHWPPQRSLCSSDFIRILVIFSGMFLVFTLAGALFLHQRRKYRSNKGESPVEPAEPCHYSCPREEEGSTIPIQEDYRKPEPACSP

[2] = target: T2, CD27 protein (His-tagged, Sino Biological Inc. 10039-H08B1) (human, UniProt P26842 20-192); assay: ELISA on coated His-tagged CD27
T2 construct: bought; coated onto ELISA plates; also called human CD27; recombinant protein; not shown: His tag
T2 sequence (looked up): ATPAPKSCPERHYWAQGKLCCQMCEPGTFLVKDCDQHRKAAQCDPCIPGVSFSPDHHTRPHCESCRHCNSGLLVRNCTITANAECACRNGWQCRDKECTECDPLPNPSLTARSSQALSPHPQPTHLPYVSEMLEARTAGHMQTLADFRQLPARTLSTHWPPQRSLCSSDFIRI

[3] = target: T1, CD27 expressed on the cell surface …; assay: cellular binding assay, HT1080_CD27 cells
Note: test concentration or dose not given here.

B2: P018.S.01.A.D05 (antibody, V domains shown)
VH: QSLEESGGRLVTPGTPLTLTCTASGFSLSSYYMSWVRQAPGKGLEYIGGIYTGGSAYYASWARGRFTISRTSTTVDLKMTSLTIEDTATYFCARDAGDRIYTTFNLWGPGTLVTVSS
VL: ALVMTQTPASVSEPVGGTVSLKCQASQSIGSDLSWYQQKSGQPPKLLIYRASKLASGVPSRFKGSGSGTEFTLTISGVQSDDAATYYCLGIDSYSSDDGIAFGGGTEVVVK
notes: V regions on human Ig constant parts; also called AB27_13
IL-8, cross-linked by F(ab')2 fragment [abs. corr.] [1]: 1.1 abs. corr. | IL-8 [abs. corr.] [1]: 0.089 abs. corr. | ELISA [abs. corr.] [2]: 3.14 abs. corr. | Cellular binding assay [RFU] [3]: 273 RFU

B3: P018.S.01.A.A05 (antibody, V domains shown)
VH: QEQLEESGGDRVQPEGSLTLTCTASGFSFSATYWICWVRQAPGKGLEWIACIFGRSSSDTYYASWAKGRFTISKTSSTTVTLQMTSLTAADTATYFCARGDSGHPYYYSFNLWGPGTLVTVSS
VL: AYDMTQTPASVEVAVGGTVTIKCQASQSIGGYLAWYQQKPGQPPKLLIYGASTLASGVPSRFRGSGSGTEFTLTISDLDSADAATYYCQCTHGTRSDWAFGGGTEVVVK
notes: V regions on human Ig constant parts; also called AB27_2
IL-8, cross-linked by F(ab')2 fragment [abs. corr.] [1]: 1.09 abs. corr. | IL-8 [abs. corr.] [1]: 0.328 abs. corr. | ELISA [abs. corr.] [2]: 3.15 abs. corr. | Cellular binding assay [RFU] [3]: 300 RFU

B5: P018.S.03.A.F03 (antibody, V domains shown)
VH: QSLEESGGRLVTPGGSLTLTCTVSGIDLSSYAMGWVRQAPGKGLEYLGIIYTSNRTHYATWAKGRFTISKTSSTTVDLKATSLTTEDTATYFCGRYGRGSGGYYYGMDLWGPGTLVTVSS
VL: DIVMTQTPASVEAAVGGTVTIKCQASQSGDDYCSWYQQKPGQRPKLLIYAASTLASGVPSRFRGSRSGTEYTLTISDLESADAATYYCQNYCAGSGVCLGVAFGGGTEVVVK
notes: V regions on human Ig constant parts; also called AB27_54
IL-8, cross-linked by F(ab')2 fragment [abs. corr.] [1]: 1.35 abs. corr. | IL-8 [abs. corr.] [1]: 0.106 abs. corr. | ELISA [abs. corr.] [2]: 3.15 abs. corr. | Cellular binding assay [RFU] [3]: 223 RFU

B6: P018.S.04.A.E02 (antibody, V domains shown)
VH: QSVEESGGRLVTPGTPLTLTCTVSGFSLNNYDMNWVRQAPGKGLEWVGYIDTGGSAYYASWVNGRFTISKTSTTVELKMTSLTASDTATYFCARGYTHGYLWGQGTLVTVSS
VL: ALVMTQTPSSVSAAVGGTVTINCQASQNVYNNLAWYQQKPGQPPKLLIDSASTLASGVSSRFKGSGSGTEFTLTISDLESADAATYYCQSADWESSNFFWAFGGGTEVVVK
notes: V regions on human Ig constant parts; also called AB27_74
IL-8, cross-linked by F(ab')2 fragment [abs. corr.] [1]: 1.91 abs. corr. | IL-8 [abs. corr.] [1]: 0.676 abs. corr. | ELISA [abs. corr.] [2]: 3.52 abs. corr. | Cellular binding assay [RFU] [3]: 463 RFU

B8: P018.S.01.A.G06 (antibody, V domains shown)
VH: QSLEESGGGLFKPTDTLTLTCTVSGIDLSRYAMGWVRQAPGKGLEYIGIISVGGGTYYANWIKGRFTISSTSTTVDLKITSPTTEDTATYFCARSPYASTSASAFNLWGPGTLVTVSS
VL: AFELTQTPSSVEAAVGGTVTIKCQASQSIYSYLSWYQQKPGQPPKLLIYEASKLASGVPSRFSGSGSGTQFTLTISDLESADAATYYCQSYSNTNTNTFGGGTEVVVK
notes: V regions on human Ig constant parts; also called AB27_24
IL-8, cross-linked by F(ab')2 fragment [abs. corr.] [1]: 1.09 abs. corr. | IL-8 [abs. corr.] [1]: 0.491 abs. corr. | ELISA [abs. corr.] [2]: 3.17 abs. corr. | Cellular binding assay [RFU] [3]: 313 RFU

Results, then the binder that gave them:

IL-8, cross-linked by F(ab')2 fragment [abs. corr.] [1]: 1.03 abs. corr. | IL-8 [abs. corr.] [1]: 0.7 abs. corr. | ELISA [abs. corr.] [2]: 3.17 abs. corr. | Cellular binding assay [RFU] [3]: 326 RFU
B1: P018.S.06.A.F06 (antibody, V domains shown)
VH: QSVEESGGRLVTPGTPLTLTCAASGFSLNSYVMSWVRQAPGKGLEWIGYIDYGGAPYYASWAKGRFTISKTSTTVELKITSPTIEDTGTYFCARGGYGGYVLVTALWGPGTLVTVSS
VL: DIVMTQTPASVSEPVGGTVTIKCQASENIYSYLAWYQQKPGQPPKLLIYQASTLASGVSSRFKGSGSGTQFTLTISDLESADAATYYCQTYYGGSTYGNGFGGGTEVVVE
notes: V regions on human Ig constant parts; also called AB27_110

IL-8, cross-linked by F(ab')2 fragment [abs. corr.] [1]: 2.29 abs. corr. | IL-8 [abs. corr.] [1]: 0.339 abs. corr. | ELISA [abs. corr.] [2]: 3.15 abs. corr. | Cellular binding assay [RFU] [3]: 280 RFU
B4: P018.S.10.A.E04 (antibody, V domains shown)
VH: QSLEESGGDLVKPGASLTLTCTASGFSFSSSYWICWVRQAPGKGLEWVACISAPGSGSTFDASWAKGRFTISKTSSTTVTLQMTSLTAADTATYFCARFYAGGSGDYFDLWGPGTLVTVSS
VL: QIVMTQTPSSTSEPVGGTVSIKCQASQNIGSYLAWYQQKPGQPPKVLIYTTSDLASGVPSRFKGSGSGTQFTLTISDLESDDAATYYCLGVYGYSSDDVAFGGGTEVVVK
notes: V regions on human Ig constant parts; also called AB27_177

IL-8, cross-linked by F(ab')2 fragment [abs. corr.] [1]: 1.57 abs. corr. | IL-8 [abs. corr.] [1]: 0.876 abs. corr. | ELISA [abs. corr.] [2]: 3.42 abs. corr. | Cellular binding assay [RFU] [3]: 448 RFU
B7: P018.S.08.A.A01 (antibody, V domains shown)
VH: B6 VH with S60N, T97I
VL: B6 VL with K39R, K45E
notes: V regions on human Ig constant parts; also called AB27_135
